Laboratory results from patent US20220187308A1 (published 2022).
Changes are numbered by the printed parent chain.

Tests used:
[1] = molecular target: T1, soluble human IL-6 receptor (human, UniProt P08887 20-357); test: SPR (Biacore T100); ratio of the KD values at 3 µM and 2 mM CaCl2
T1 construct: range 1-357; The stated range begins at position 1, so it includes the signal peptide; no cleavage site is stated; also called hsIL-6R
T1 sequence (looked up): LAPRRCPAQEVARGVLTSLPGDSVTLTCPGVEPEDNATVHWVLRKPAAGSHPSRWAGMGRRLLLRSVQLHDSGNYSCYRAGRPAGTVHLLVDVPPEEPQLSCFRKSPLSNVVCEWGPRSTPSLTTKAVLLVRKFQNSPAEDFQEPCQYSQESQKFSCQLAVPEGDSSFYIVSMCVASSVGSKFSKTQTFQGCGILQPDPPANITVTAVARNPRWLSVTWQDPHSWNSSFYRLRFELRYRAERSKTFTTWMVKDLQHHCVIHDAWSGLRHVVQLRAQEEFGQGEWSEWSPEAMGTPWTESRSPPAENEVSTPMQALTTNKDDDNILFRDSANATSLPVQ
Description: The antigen-antibody reaction was kinetically analyzed in solutions of 2 mM and 3 μM calcium ion concentrations as high-calcium ion concentration and low-calcium ion concentration conditions, respectively. Each antibody of interest was captured onto Sensor chip CM4 (GE Healthcare Bio-Sciences Corp.) with protein A (Invitrogen Corp.) immobilized thereon in an appropriate amount by the amine coupling method. Two types of buffer solutions were used as running buffers: 10 mM ACES, 150 mM NaCl, 0.05% (w/v) Tween 20, and 2 mM CaCl₂ (pH 7.4); and 10 mM ACES, 150 mM NaCl, 0.05% (w/v) Tween 20, and 3 […] CaCl₂ (pH 7.4). The human IL-6 receptors were also diluted with each of these buffers. Assay was all carried out at 37° C.

[2] = molecular target: T2, GC-mIgA (mouse); test: SPR (Biacore A100), antibody from culture supernatant captured via protein A/G on CM5, GC-mIgA as analyte, 25 C, 1.2 mM CaCl2, pH 7.4 against pH 5.8
T2 construct: also called recombinant mouse IgA GC-mIgA; mouse IgA
T2 sequence (light, as listed by the source): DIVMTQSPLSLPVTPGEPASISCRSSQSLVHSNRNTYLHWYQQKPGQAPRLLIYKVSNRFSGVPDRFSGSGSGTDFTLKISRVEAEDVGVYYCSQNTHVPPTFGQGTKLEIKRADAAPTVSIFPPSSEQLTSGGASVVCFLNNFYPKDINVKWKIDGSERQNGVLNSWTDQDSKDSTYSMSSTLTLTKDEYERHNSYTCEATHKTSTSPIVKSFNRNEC
Description: The culture supernatant obtained by the above method was used to analyze GC-mIgA-binding ability using Biacore A100. Antibodies in the culture supernatant were captured onto Sensor chip CM5 (GE Healthcare Bio-Sciences Corp.) with protein A/G (Pierce Biotechnology Inc.) immobilized thereon in an appropriate amount by the amine coupling method. Two types of buffer solutions were used as running buffers: 20 mM ACES, 150 mM NaCl, 0.05% (w/v) Tween 20, and 1.2 mM CaCl₂) (pH 7.4); and 20 mM ACES, 150 mM NaCl, 0.05% (w/v) Tween 20, and 1.2 mM CaCl₂) (pH 5.8). The interaction of antigen-antibody reaction was analyzed under neutral pH and acidic pH conditions. GC-mIgA was also diluted with each of these buffers and injected at a flow rate of 10 μL/min for 60 seconds to interact the antigen with the antibodies captured on the sensor chip. Then, 10 mM glycine-HCl (pH 1.5) was injected thereto at a flow rate of 30 μL/min for 30 seconds to regenerate the sensor chip. Assay was all carried out at 25° C.

[3] = molecular target: T3, biotinylated human HMGB1-Avi (human, UniProt P09429 2-215, biotin added at the C-terminal Avitag sequence by biotin ligase (BirA)); test: phage ELISA (Fab displayed on phage) on biotin-labeled hHMGB1 on a StreptaWell plate, pH 7.6 against pH 5.5
T3 construct: also called biotin-labeled hHMGB1; hHMGB1-Avitag
T3 sequence: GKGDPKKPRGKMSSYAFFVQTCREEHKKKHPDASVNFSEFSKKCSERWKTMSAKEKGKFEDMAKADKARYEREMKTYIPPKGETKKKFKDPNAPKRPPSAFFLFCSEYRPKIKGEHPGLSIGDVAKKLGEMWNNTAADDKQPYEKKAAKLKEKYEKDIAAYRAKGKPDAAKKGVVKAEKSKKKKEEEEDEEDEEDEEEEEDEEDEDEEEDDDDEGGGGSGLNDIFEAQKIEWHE
Description: A phage-containing culture supernatant was collected by phage culture according to a conventional method (Methods Mol. Biol. (2002) 178, 133-145) from each single colony of the E. coli obtained after the third and fourth rounds of panning carried out in the step (26-2). After addition of BSA and CaCl₂) (final concentration: 4% BSA and 1.2 mM calcium ion), the phage-containing culture supernatant was subjected to ELISA by the following procedures: StreptaWell 96 microtiter plate (F. Hoffmann-La Roche Ltd.) was coated for 4 hours or longer with 100 μL of PBS containing biotin-labeled hHMGB1. Each well of the plate was washed with PBST to remove unbound antigens. Then, the well was blocked with 250 μL of 4% BSA-TBS (50 mM Tris, 300 mM NaCl, 2.5 mM CaCl₂), and 4% BSA) for 1 hour or longer. […] Each well was washed with 1.2 mM CaCl₂)/TBST (pH 7.6), and 1.2 mM CaCl₂)/TBS (pH 7.6) or 1.2 mM CaCl₂)/150 mM NaCl/50 mM MES (pH 5.5) was added thereto. The plate was left standing at 37° C. for 30 minutes for incubation. After washing with 1.2 mM CaCl₂)/TBST (pH 7.6), HRP-conjugated anti-M13 antibodies (Amersham Pharmacia Biotech Inc.) diluted with 4% BSA-TBS were added to each well. The plate was incubated for 1 hour. After washing with 1.2 mM CaCl₂)/TBST (pH 7.6), TMB single solution (Invitrogen Corp.) was added to the well. The chromogenic reaction of the solution in each well was terminated by the addition of sulfuric acid. Then, the developed color was assayed on the basis of absorbance at 450 nm.

[4] = molecular target: T4, human HMGB1 (human, UniProt P09429 2-215); test: SPR (Biacore T100), antibody captured via protein A/G on CM4, hHMGB1 as analyte, 25 C, 1.2 mM CaCl2, pH 7.4 against pH 5.8
T4 construct: Expressed in FreeStyle 293 cells and purified; analyte in the Biacore assay of step (26-5); also called hHMGB1; recombinant human HMGB1
T4 sequence: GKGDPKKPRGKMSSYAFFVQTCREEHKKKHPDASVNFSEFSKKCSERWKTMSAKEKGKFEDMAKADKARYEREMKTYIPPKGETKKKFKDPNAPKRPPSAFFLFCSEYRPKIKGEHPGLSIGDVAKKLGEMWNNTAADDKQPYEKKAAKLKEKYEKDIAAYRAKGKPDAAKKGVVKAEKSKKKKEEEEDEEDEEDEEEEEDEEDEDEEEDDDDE
Description: In order to judge the pH dependence of hHMGB1-binding activity of the antibodies HM_3_2_R_017 (heavy chain: SEQ ID NO: 131 and light chain: SEQ ID NO: 132), HM_3_2_R_054 (heavy chain: SEQ ID NO: 133 and light chain: SEQ ID NO: 134), and HM_4_1_R_001 (heavy chain: SEQ ID NO: 135 and light chain: SEQ ID NO: 136) obtained in the step (26-4), these antibodies were analyzed for their interaction with hHMGB1 using Biacore T100 (GE Healthcare Bio-Sciences Corp.). The interaction of antigen-antibody reaction was analyzed in solutions of pH 7.4 and pH 5.8 as neutral pH and acidic pH conditions, respectively. Approximately of 200 RU of each antibody of interest was captured onto Sensor chip CM4 (GE Healthcare Bio-Sciences Corp.) with protein A/G (Pierce Biotechnology Inc.) immobilized thereon in an appropriate amount by the amine coupling method. Two types of buffer solutions were used as running buffers: 20 mM ACES, 150 mM NaCl, 0.05% (w/v) Tween 20, and 1.2 mM CaCl₂) (pH 7.4); and 20 mM ACES, 150 mM NaCl, 0.05% (w/v) Tween 20, and 1.2 mM CaCl₂) (pH 5.8). hHMGB1 was also diluted with each of these buffers. Assay was all carried out at 25° C.
In the analysis on the interaction of antigen-antibody reaction using the HM_3_2_R_017 antibody, the HM_3_2_R_054 antibody, and the HM_4_1_R_001 antibody, the diluted hHMGB1 solution or a blank running buffer was injected at a flow rate of 10 μL/min for 60 seconds to […] onto the sensor chip. The HM_3_2_R_017 antibody, the HM_3_2_R_054 antibody, and the HM_4_1_R_001 antibody were interacted with hHMGB1. Then, 10 mM glycine-HCl (pH 1.5) was injected thereto at a flow rate of 30 μL/min for 30 seconds to regenerate the sensor chip.

B1: H54/L28-IgG1 (antibody, V domains shown)
VH: QVQLQESGPGLVKPSETLSLTCAVSGYSISDDQAWSWVRQPPGEGLEWIGYISYSGITNYNPSLKGRVTISRDTSKNQFSLKLSSVTAADTAAYYCARSLARTTAMDYWGEGTLVTVSS
VL: DIQMTQSPSSLSASVGDSVTITCQASQDISSYLNWYQQKPGKAPELLIYYGSELHSGVPSRFSGSGSGTDFTFTISSLEAEDAATYYCQQGNSLPYTFGQGTKVEIER
notes: Control anti-human IL-6 receptor antibody described in WO2009125825; also called H54/L28-IgG1 antibody
Ca dependence (KD at 3 µM CaCl2 against KD at 2 mM CaCl2) [1]: ~1 times

B2: FH4-IgG1 (antibody, V domains shown)
VH: QVQLVQSGAEVKKPGSSVKVSCKASGGTFSSYAISWVRQAPGQGLEWMGGIIPIFGTANYAQKFQGRVTITADESTSTAYMELSSLRSEDTAVYYCARERDYYDSSGYYDAFDIWGQGTMVTVSS
VL: ETTVTQSPSFLSASVGDRVTITCITTTDIDDDMNWFQQEPGKAPKLLISEGNILRPGVPSRFSSSGYGTDFTLTISKLQPEDFATYYCLQSDNLPFTFGQGTKLEIKR
notes: also called FH4-IgG1 antibody
Ca dependence (KD at 3 µM CaCl2 against KD at 2 mM CaCl2) [1]: ≥ 60 times

B3: 6RL #9-IgG1 (antibody, V domains shown)
VH: QVQLVQSGAEVKKPGASVKVSCKASGYTFTSYYMHWVRQAPGQGLEWMGIINPSGGSTSYAQKFQGRVTMTRDTSTSTVYMELSSLRSEDTAVYYCARDDPGGGEYYFDYWGQGTLVTVSS
VL: QSVLTQPPSVSGAPGQRVTISCTGSRSNMGAGYDVHWYQLLPGAAPKLLISHNTHRPSGVPDRFSGSKSGASASLAITGLQAEDEADYYCQSHDSSLSAVVFGGGTKLTVLS
notes: also called 6RL #9 antibody; 6RL #9-IgG1 antibody
Ca dependence (KD at 3 µM CaCl2 against KD at 2 mM CaCl2) [1]: ≥ 120 times

B4: mIAP1B3-3_#024 (antibody, human IgG1, kappa, V domains shown)
VH: QVQLQESGPGLVKPSQTLSLTCAVSGGSISKTYSYWAWIRQHPVKGLEWIGYISYGGGTHYNPSLKSRVTISSDTSKNHFSLNLNSVTAADTAVYYCARSGFRVFGAFDIWGQGTMVTVSS
VL: DIQMTQSPSSLSASVGDRVTITCRASQSIRSHLNWYQQKPGKAPKLLIYDASHLQSGVPSRFSGSGSGTDFTLTISSLQPEDFATYYCQQHYNSPLTFGQGTKVEIKR
notes: From His library 1; tested from the culture supernatant of 293-F cells
binding result [2]: binds

B5: mIAP1B3-3_#130 (antibody, human IgG1, kappa, V domains shown)
VH: QVQLQESGPGLVKPSETLSLTCTVSGGSISSSSYYWGWIRQPPGKGLEWIGSIYYSGSTYYNPSLKSRVTISVDTSKNQFSLKLSSVTAADTAVYYCARHGPSGSYYAFDIWGQGTMVTVSS
VL: B4 VL with R30S, D50K, H91R, Y92H, N93H
notes: as for B4
binding result [2]: binds

B6: mIAP1B3-3_#230 (antibody, human IgG1, kappa, V domains shown)
VH: QVQLQQSGPGLVKPSESLSLTCNVSGYYISSGYYWGWIRQPPGKGLEWIGSIYPSGTSHYNPSLKSRVTISLDTSKNQFSLKLSSLSAADTAVYYCARAGVIAGGPRTYAFDIWGQGTTVTVSS
VL: B4 VL with N34A, D50K, H91S, Y92H, N93H
notes: as for B4
binding result [2]: binds

B7: HM_3_2_R_017 (antibody, human IgG1, kappa, V domains shown)
VH: QVQLQESGPGLVKPSETLSLTCSVSGGPISSSGYYWGWIRQPPGKGLEWIGTVYFNGDTYYNPSLKSRVTISVDTSKNQFSLKLNSVTAADTAVYYCAREEGYYYYYMDVWGKGTTVTVSS
VL: B4 VL with R30N, D50G, H91S, Y92H, N93S, S94Y
notes: From His library 1; also called HM_3_2_R_017 antibody
binding result [3]: binds
binding result [4]: binds

B8: HM_3_2_R_054 (antibody, human IgG1, kappa, V domains shown)
VH: QVQLVQSGAEVKKPGSSVKVSCKASGGTFSSYAISWVRQAPGQGLEWMGGIIPIFGTANYAQKFQGRVTITADESTSTAYMELSSLRSEDTAVYYCARDNRTLTYYDFWSGYSFWDAFDIWGQGTMVTVSS
VL: B4 VL with R30H, N34A, D50G, H91R, Y92H, N93S, S94Y
notes: From His library 1; also called HM_3_2_R_054 antibody
binding result [3]: binds
binding result [4]: binds

B9: HM_4_1_R_001 (antibody, human IgG1, kappa, V domains shown)
VH: EVQLVESGGGLVQPGGSLRLSCAASGFTFSNYEMNWVRQAPGKGLEWISYISSSGRTFSYADSVKGRFTISRDNAKNSLYLQMNSLRAEDTAVYYCARDSGYSDGWYPSWFDSWGQGTLVTVSS
VL: B4 VL with R30N, N34A, D50H, H53N, Y92S, N93S, S94Y, L96Y
notes: From His library 1; also called HM_4_1_R_001 antibody; HM_4_1R_001 antibody
binding result [3]: binds
binding result [4]: binds
